Source: patent US20200369729A1 (CENTRE NATIONAL DE LA RECHERCHE SCIENTIFIQUE, published 2020)
*: point of attachment. Succinimide(1-Et,3-yl) = CCN1C(=O)CC(*)C1=O

B1: MUB40#1 (peptide)
peptide: Ac-C(Succinimide(1-Et,3-yl))TAEGIKKFEGDGYELFKDNFPAGEKFDNDDTNDQFYTVIF-NH2
modifications: not fully specified
notes: Unlabelled peptide as used in analytical gel filtration; trimer
B2: MUB40#3 (peptide)
peptide: Ac-C(Succinimide(1-Et,3-yl))DQMLRQDDLDGYTDETIPYSTAEGIKKFEGDGYELFKDNF-NH2
modifications: not fully specified
notes: Unlabelled peptide as used in analytical gel filtration; 'rather organized as tetramers'
B3: MUB40#2 (peptide)
peptide: Ac-C(Succinimide(1-Et,3-yl))GYTDETIPYSTAEGIKKFEGDGYELFKDNFPAGEKFDNDD-NH2
modifications: not fully specified
notes: as for B2
B4: MUB40#4 (peptide)
peptide: Ac-C(Succinimide(1-Et,3-yl))VHVQYIDGETDQMLRQDDLDGYTDETIPYSTAEGIKKFEG-NH2
modifications: not fully specified
notes: as for B2

Biological target: the molecule itself
Test: self-association, analytical gel filtration in 20 mM phosphate buffer, 150 mM NaCl, pH 7.4
Experimental: (A) Schematic representation of the four 40-amino acid peptides named MUB₄₀#1, MUB₄₀#2, MUB₄₀#3, MUB₄₀#4, overlapping and covering the MUB₇₀ sequence (Coïc et al., 2012) (from C-terminal to N-terminal, see FIG. 2). (B) Human colonic mucus layer was labelled with the MUB₄₀#1-Cy5 fluorescent conjugate (1 μg/mL, magenta). (C) Colonic goblet cell granules were labelled with MUB₄₀#1-Cy5 (1 μg/mL, magenta), which was not the case for MUB₇₀-Cy5 (Coïc et al., 2012) or MUB₄₀#2-#4 peptides (data not shown). Actin (red); bar, 20 μm. (D) Elution profiles of MUB₄₀ peptides (#1-#4) were obtained by analytical gel filtration (absorbance at 280 nm). Samples were prepared at 10 μg/ml in the elution buffer (20 mM phosphate buffer, 150 mM NaCl, pH7.4). MUB₄₀#1 assembled as a trimer, similarly to MUB₇₀ (Coïc et al., 2012), not MUB₄₀#2, MUB₄₀#3, and MUB₄₀#4. […] (E) Far-UV Circular Dichroism spectra of the four MUB₄₀ peptides at 60 μM in 20 mM sodium phosphate buffer (pH 7.4) in the presence of 50 mM NaCl, showing a specific structural signal of MUB₄₀#1, compared to others peptides. (F) A human colonic explant was infected with Shigella flexneri pGFP (green) and labelled with MUB₄₀#1-Cy5 (1 μg/mL, magenta) and Dapi (blue) after fixation and permeabilization. The colonic mucus layer and infiltrated neutrophils (see (G)), were labelled with MUB₄₀#1-Cy5, as imaged by two-photon microscopy. Bar, 50 μm (G) The labelling of polymorphonuclear neutrophils with MUB₄₀#1-Cy5 (1 μg/mL, magenta) was confirmed on human purified neutrophils, showing a granular staining. Nucleus was stained with Dapi (blue). Bar, 5 μm.

Binding result, binds:
B1
B2
B3
B4
